Assay results as given in US20110009597A1, “RECOMBINANT GANODERMA LUCIDIUM IMMUNOMODULATORY PROTEIN (rLZ-8) AND USES THEREOF” (priority 2008, published 2011).

Legend:
S180 cells = test: Mouse transplanted S180 subcutaneous tumor inhibition; type: in vivo, Mice; conditions: 10 days
Procedure: Mice, 18-22 g, males and females were equally divided, provided by Jilin University Laboratory Animal Center; Mice Ehrlich ascites cells strain, provided by our laboratory S180; Cyclophosphamide (CTX), offered by Jiangsu Hengrui Medicine Co., Ltd., lot number: 06101921. S180 ascites tumors and solid tumors in experiment group were divided into normal control group, negative control group, positive control group, rLZ-8 low-dose treatment group (0.25 mg·kg^−1), rLZ-8 medium-dose treatment group (0.5 mg·kg^−1), rLZ-8 high-dose treatment group (1 mg·kg^−1). For each group 10 mice.
Select well-growing S180 cells, dilute appropriately with sterile saline into a tumor cell suspension, cell counts for 10^7·L^−1, under the right armpit of each mouse inoculated subcutaneously 0.2 ml (except for the normal control group). Treatment after 24 h of vaccination. Normal control group and negative control group were given saline 0.2 ml·each^−l·d^−1, intraperitoneal injection; positive control group were given cyclophosphamide 20 mg·kg^−1, intraperitoneal injection. rLZ-8 treatment groups were given doses of tail venous injection respectively, 0.2 ml·each^−1·d^−1, in 10 consecutive days. Draw blood from orbital venous plexus 10 days before and after medication respectively, sent to Jilin University No. 1 Hospital clinical laboratory to test and analyze the number of WBC. Kill all mice the next day of drug withdrawal at cervical dislocation, dissect anatomically and take out the tumors, weigh tumors, calculate the inhibition rate using the following equation:
Inhibition rate (%)=(average tumore weight of the control group−average tumore weight of the experiment group)/average tumor weight of the control group×100%

WBC [1] = test: Cyclophosphamide low-leucocyte mice model, WBC; type: in vivo; set-up: unit not given here
Procedure: rLZ-8 preparation of sterile saline. Divide them into 5 μg·kg^−1, 2.5 μg√kg^−1, 1.25 μg·kg^−1, 0.62 μg·kg^−1 dose groups.
Genlei™ Scimax™ [Recombinant human granulocyte colony-stimulating factor injection (rhG-CSF)], production lot: 20060403; 75 μg/vial is prepared with sterile normal saline into the preparation of 3.2 μg·kg^−1, 0.2 ml/vial.
Cyclophosphamide (CP) for injection (the production lot number 050216; 200 mg/vial) is prepared with sterile normal saline into the preparation of 12.5 mg·kg^−1, 0.2 ml/vial.
Normal control group, several protein dose groups, positive control group (Genlei™ Scimax™).
(§1) Excluding the normal control group (given same normal saline), each group of mice were given tail vein injection of cyclophosphamide, 1.25 μg·kg^−1, 0.2 ml/vial, for 3 consecutive days. On 3rd day, rat tail venous blood sampling, sent to Jilin University First Hospital laboratory, cell analyze the number of WBC. After successful modeling, they were given to the above groups respective dose of rLZ-8 and positive drugs (Genlei™ Scimax™) treatment, the normal control group and CP groups were given same normal saline, on the 3rd, 7th and 14th day of the treatment to draw venous blood from mice tail respectively, sent to Jilin University First Hospital testing the numbers of WBC. Compare WBC changes before and after the treatment for analysis of drug efficacy.

WBC [2] = test: Cyclophosphamide low-leucocyte rat model, WBC; type: in vivo, rats; set-up: unit not given here
Procedure: rLZ-8 preparation of sterile saline. Divide them into 20 μg·kg^−1, 10 μg·kg^−1, 5 μg·kg^−1, 2.5 μg·kg^−1, 1.25 μg·kg^−1, 0.625 μg·kg^−1, 0.31 μg·kg^−1 dose groups.
Genlei™ Scimax™ [Recombinant human granulocyte colony-stimulating factor injection (rhG-CSF)], production lot: 20060403; 75 μg/vial is prepared with sterile normal saline into the preparation of 9.45 μg·ml^−1, 0.1 ml/vial.
Cyclophosphamide (CP), the production lot number 050216; 200 mg/vial is prepared with sterile normal saline into the preparation of 20 mg·ml^−1, 0.1 ml/vial, namely, 49 mg·kg^−1.
Normal control group, protein low-dose group, protein medium-dose group, protein high-dose group, positive control group (Genlei™ Scimax™)
as §1, with “rats” for “mice”, “20 mg·ml^−1, 0.1” for “1.25 μg·kg^−1, 0.2”

[3] = rLZ-8 0.25 mg·kg^−1 tail venous injection
[4] = rLZ-8 0.5 mg·kg^−1 tail venous injection
[5] = rLZ-8 1 mg·kg^−1 tail venous injection

B1: rLZ-8: Recombinant Ganoderma Lucidum Immune Regulatory Protein expressed in Pichia pastoris (protein, UniProt P14945 2-111, looked up)
Immunomodulatory protein Ling …: SDTALIFRLAWDVKKLSFDYTPNWGRGNPNNFIDTVTFPKVLTDKAYTYRVAVSGRNLGVKPSYAVESDGSQKVNFLEYNSGYGIADTNTIQVFVVDPDTNNDFIIAQWN
S180 cells; [3]
  Inhibition rate (%): 16.8%
  Tumor weight: 0.84 ± 0.03 g
S180 cells; [4]
  Inhibition rate (%): 25.7%
  Tumor weight: 0.75 ± 0.02 g
S180 cells; [5]
  Inhibition rate (%): 45.5%
  Tumor weight: 0.55 ± 0.03 g
WBC [1]; rLZ-8 0.62 μg·kg−1
  WBC, 3rdday of medication: 6.4 ± 0.41
  WBC, 7thday of medication: 27.2 ± 0.10
  WBC, 14thday of medication: 13.9 ± 0.17
WBC [1]; rLZ-8 1.25 μg·kg−1
  WBC, 3rdday of medication: 8.1 ± 0.17
  WBC, 7thday of medication: 19.7 ± 0.17
  WBC, 14thday of medication: 13.9 ± 0.14
WBC [1]; rLZ-8 2.5 μg·kg−1
  WBC, 3rdday of medication: 6.6 ± 0.77
  WBC, 7thday of medication: 22.8 ± 0.15
  WBC, 14thday of medication: 15.2 ± 0.11
WBC [1]; rLZ-8 5 μg·kg−1
  WBC, 3rdday of medication: 5.0 ± 0.12
  WBC, 7thday of medication: 20.3 ± 0.11
  WBC, 14thday of medication: 14.3 ± 0.21
WBC [2]; rLZ-8 0.31 μg·kg−1
  WBC, 3rdday of medication: 1.9 ± 0.17
  WBC, 7thday of medication: 13.5 ± 0.13
  WBC, 14thday of medication: 11.0 ± 0.31
WBC [2]; rLZ-8 0.62 μg·kg−1
  WBC, 3rdday of medication: 5.2 ± 0.14
  WBC, 7thday of medication: 12.8 ± 0.74
  WBC, 14thday of medication: 12.1 ± 0.24
WBC [2]; rLZ-8 1.25 μg·kg−1
  WBC, 3rdday of medication: 2.8 ± 0.12
  WBC, 7thday of medication: 11.0 ± 0.47
  WBC, 14thday of medication: 10.3 ± 0.45
WBC [2]; rLZ-8 2.5 μg·kg−1
  WBC, 3rdday of medication: 1.7 ± 0.18
  WBC, 7thday of medication: 12.8 ± 0.11
  WBC, 14thday of medication: 10.6 ± 0.29
WBC [2]; rLZ-8 5 μg·kg−1
  WBC, 3rdday of medication: 2.6 ± 0.64
  WBC, 7thday of medication: 17.6 ± 0.23
  WBC, 14thday of medication: 11.2 ± 0.26
WBC [2]; rLZ-8 10 μg·kg−1
  WBC, 3rdday of medication: 1.6 ± 0.71
  WBC, 7thday of medication: 15.8 ± 0.33
  WBC, 14thday of medication: 10.9 ± 0.21
WBC [2]; rLZ-8 20 μg·kg−1
  WBC, 3rdday of medication: 1.6 ± 0.33
  WBC, 7thday of medication: 15.8 ± 0.13
  WBC, 14thday of medication: 9.8 ± 0.19
